Molecular target: T1, His-tag fusion human PRMT5 protein (human, UniProt O14744 1-637)
T1 construct: Protein arginine methyltransferase 5 (PRMT5), human; also called His-tagged PRMT5; his-tagged PRMT5; source: E. coli BL21DE3, recombinant; not shown: His-tag, N-terminal, kept
Assay: pull-down; GST fusion proteins immobilized on glutathione-Sepharose 4B beads, mixed with His-tag fusion human PRMT5; 4 °C, 2 h; beads washed four times; western blot with anti-His-tag mAb
Conditions: both partners purified

T1 sequence (O14744 whole entry, the tested form may be a part): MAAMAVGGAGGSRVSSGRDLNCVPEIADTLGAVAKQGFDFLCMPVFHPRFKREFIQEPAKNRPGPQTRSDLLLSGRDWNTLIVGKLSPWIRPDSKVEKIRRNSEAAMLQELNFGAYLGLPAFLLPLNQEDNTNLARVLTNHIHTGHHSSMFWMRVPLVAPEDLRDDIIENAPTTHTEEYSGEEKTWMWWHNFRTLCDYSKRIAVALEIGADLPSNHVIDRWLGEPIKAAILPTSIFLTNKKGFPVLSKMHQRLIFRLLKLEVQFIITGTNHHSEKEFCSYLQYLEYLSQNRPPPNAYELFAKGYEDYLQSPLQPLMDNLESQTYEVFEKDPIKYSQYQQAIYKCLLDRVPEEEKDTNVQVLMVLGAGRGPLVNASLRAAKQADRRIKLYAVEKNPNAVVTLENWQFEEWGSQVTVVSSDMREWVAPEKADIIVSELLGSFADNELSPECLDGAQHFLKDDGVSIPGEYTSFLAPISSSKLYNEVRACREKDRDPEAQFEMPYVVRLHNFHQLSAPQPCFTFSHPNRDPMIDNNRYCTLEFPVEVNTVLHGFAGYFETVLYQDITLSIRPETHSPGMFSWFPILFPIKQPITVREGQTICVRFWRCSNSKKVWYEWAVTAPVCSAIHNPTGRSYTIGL

| binding result | Binder |
| --- | --- |
| binds | GST-Smad3 deletion mutant aa 225-425 (domain or fragment, PCR product cloned into pGEX6P1 (BamHI, XhoI); cDNA from the pCMV Flag hSmad3 vector (human); source: E. coli BL21DE3, recombinant, immobilized on glutathione-Sepharose 4B beads) not shown |
| binds | recombinant full-length GST-Smad3 (natural protein, human, UniProt P84022 1-425, looked up, Smad3, full length; the only Smad3 cDNA named is the pCMV Flag hSmad3 vector (human); The methods tell the cloning into pGEX6P1 only for the deletion mutants; the full-length GST construct is not described; also called GST-tagged Smad3; source: E. coli BL21DE3, recombinant, immobilized on glutathione-Sepharose 4B beads) MSSILPFTPPIVKRLLGWKKGEQNGQEEKWCEKAVKSLVKKLKKTGQLDELEKAITTQNVNTKCITIPRSLDGRLQVSHRKGLPHVIYCRLWRWPDLHSHHELRAMELCEFAFNMKKDEVCVNPYHYQRVETPVLPPVLVPRHTEIPAEFPPLDDYSHSIPENTNFPAGIEPQSNIPETPPPGYLSEDGETSDHQMNHSMDAGSPNLSPNPMSPAHNNLDLQPVTYCEPAFWCSISYYELNQRVGETFHASQPSMTVDGFTDPSNSERFCLGLLSNVNRNAAVELTRRHIGRGVRLYYIGGEVFAECLSDSAIFVQSPNCNQRYGWHPATVCKIPPGCNLKIFNNQEFAALLAQSVNQGFEAVYQLTRMCTIRMSFVKGWGAEYRRQTVTSTPCWIELHLNGPLQWLDKVLTQMGSPSIRCSSVS |

Source: article PMC10951424, “Fibroblast-specific PRMT5 deficiency suppresses cardiac fibrosis and left ventricular dysfunction in male mice” (Nature Communications, 2024)
